This note sets out measurements from the nanobody polyreactivity screen of Harvey et al. (2022).

This data set is described as follows: yeast display, Sf9 membrane polyspecificity reagent, FACS + sequencing; frameworks hold sequencing errors. Summed up:
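Nanobodies from a synthetic yeast display library (Saccharomyces cerevisiae BJ5465), induced 36–48 hours with galactose, were stained 1 hour at 4 °C with 10% biotinylated, detergent-solubilized Sf9 membrane reagent, enriched on streptavidin microbeads, then FACS-sorted. Anti-HA (expression) and streptavidin (reagent binding) fluorescence set low and high (top ~1%) gates. Polyreactivity labels come from the gate of origin. Genes were colony-PCR amplified, MiSeq 2 × 250 sequenced and filtered by CDR length.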
For “QVQLVESLGGLLHAGGSLRLSCGASGSIFGSNALGWYRQAPGKERELVAAINYSGGSTTYADSVKGRFTISRDNAKNTVYLQMTSLKPEDTAVYYCNADVLYQFDEGVWSDYWGQGTQVTVSS”, the “polyreactivity (PSR sort gate)” value is on record as “low polyreactivity”.

Regarding “QVQLVESGGGLVQAGGSLRLSCAASGIIFGRYAMGWYRQAPGKERELVAAITWSGGGTYYADSVKGRFTISRDNAKNTVYLQMNSLKPEDTAVYYCAARTTPHWGYVSTNYWGQGTQVTVSS”, the “polyreactivity (PSR sort gate)” value is on record as “low polyreactivity”. Turning to “QVQLVESGGGLVQAGGSLRLSCAASGRIFTHNVMGWYRQAPGKERELVAAISGGGGSTYYADSVKGRFTISRDNAKNTVYLQMNSLKPEDTAVYYWAAVGFGRQGQEDYWGQGTHVTVSS”, the “polyreactivity (PSR sort gate)” value is on record as “low polyreactivity”. With “QVQLVESGGGLVQAGGSLRLSCAASGSTFALYAMGGSRPAPGKERELVAVINSGGSTYYADSVKGRFTISRDNAKNTVYLLMNSLKPEDTAVSYCATVYVWAYRGTDSSYRFDYWGKGTQVTVSS” the entry was “low polyreactivity”; with “QVQLVESGGGLVQAVGSLRLSCAPSGRTLNNYTMGWNRPAPGKERELVAAIRWSTGSTYYADSVKGRFTISRDNSKNTVYLQMNSLKPEDTAVYYCNAYRYQWAQSTEYDYWGQGTQVTVSS”, “high polyreactivity”. With “QVQLVESGGGLVQAGGSLRLSCAASGFIFRLYAMGWYRQAPGKERELVAAISSSGGRTTYADSVKGRFTISRDNAKNTVYLQMNSLKPEDTAVYYCNADLWPGNHDGYWGQGTQVTVSS” the entry was “low polyreactivity”; with “QVQLVESGGGLVQAGGSLRLSCAASGSIFPYNAMGWYRQAPGEFVAAISYSSGSTYYADSVKGRFTISRDNAKNTVYLQMNSLKPEDTAVYYCAAGSWYPPSYVWLGRYDYWGQGTQVTVSS”, “low polyreactivity”; with “QVQLVESGGGLVQAGGSLRLSCAASGRIFLYYTMGWYRQAPGKERELVAAITRSGGSTYYADSVKGRFTISRDNAKNTVYLQMNSLKPEDTAVYYCNRAYVRYVPMNYWGQGTQVTVSS”, “high polyreactivity”. Consider “QVQLVESGGGLVQAGGSLRLSCAASGSIFSYYAMGWYRQAPGKERELVAAITTNTGNTYYADSVKGRFTISRDNAKNTVYLQMNSLKPEDSAVYYCAKSGVADFYYTYYYWGQGTQVNVSS”, for which the “polyreactivity (PSR sort gate)” value is given as “low polyreactivity”.

As for “QVQLVESGGGLVQAGGSLRLSCAASGYTFAYYVMGWYRQAPGKERELVATIRSRAGRTYYADSVKERFTISRDNAKNTVYLQMNSLKPEDTAVYYCAAGWYYTYDYWGQGTQVTVSS”, the “polyreactivity (PSR sort gate)” value is “high polyreactivity”.

Regarding “QVQLVESGGGLVQAGGSLRLSCAASGFIFKRSAMGWYRQAPGKERELVAAITLSGGDTYYADSVKGRFTISRDNAKNNVYLQMNSLKPEDTAVYYCNAPYIGENYYWGQGTQVTVSS”, the “polyreactivity (PSR sort gate)” value is listed as “high polyreactivity”. Turning to “QVQLVESVGGLVQAGGSLRLSCAASGRTFRYYAMGWYRQAPGKERELVAAISKTGGSTYYADSVKGRFTISRDNAKNTVYLQMNSLKPEDTAVYYCAAQSGWGYSTYYYWGQGTQVTVSS”, the “polyreactivity (PSR sort gate)” value is recorded as “high polyreactivity”. Regarding “QVQLVESGGGLVQAGGSLRLSCAASGSIFRGYAMGWYRQAPGKERELVAAITSRGGSTYYADSVKGRFTISRDNAKNTVYLQMNSLKPEDTAVYYCNKRVYYPWGQGTQVTVSS”, the “polyreactivity (PSR sort gate)” value is “high polyreactivity”. In the case of “QVQLVESGRGLVQAGGSLRLSCAASGITYGNNAMGWYRQAPGKERELVATITSSGGSTYYADSVKGRFTISRDNAKNTVYSQMNSLKPEDTAVYYCAARQPGTRYPYDYWGQGTQVTVSS”, the “polyreactivity (PSR sort gate)” value is “high polyreactivity”. With “QVQLVESGGGLVQAGGSLRLSCAASGSIFYWNAMGWYRQAPGKERELVAAINYSGDSTYYADSVKGRFTISRDNAKNTVYLQMNSLKPEDTEVYYCNFDYWGQGTQVTVSS” the entry was “low polyreactivity”; with “QVQLVESGGGLVQAGGSLRLSCAASGRIFSTYAMGWYRQAPGKERELVAAISYSGTTTYYADSVKGRFTISRDNAKNTVYLQMNSLKPEDTAVYYCAAYRYSTWSYGRDYYWGQGTQVTVSS”, “high polyreactivity”; with “QVQLVESGGGLVQAGGSLRLSCAASGFTFFRYAMGWYRQAPGKERELVAAISWSGGRTYYADSVKGRFTISRDNAKNTVYLQMNSLKPEDTAVYYCAVDYYRSGLHYDSWGQGTQVTVSS”, “high polyreactivity”. With “QVQLVESGGGLVQAGGSLRLSCAASGSTFVDNAMGWYRQAPGKERELVAAINSTDITNYADSVKGRFTISRDNAKNTVYLQMNSLKPEDTAVYYCAKDLLKWRKYQWYYYWGQGTQVTVSS”, the “polyreactivity (PSR sort gate)” value is listed as “low polyreactivity”. For the sequence “QVQLVESGGGLVQAGGSLRLSCAASGSTFWANAMGWSRPAPGKERELVAAITSTGITYYADSVKGRFTISRDNAKNTVYLQMNSLIPEDTAVYYCAAEPPDEFWTDLLVDYFLGYEYWGPGTQVTVSS”, the “polyreactivity (PSR sort gate)” value was “low polyreactivity”. On to “VQLVESGGGLVQAGGSLRLSCAASGFTFRWYAMGWYRQAPGKERELVAAISRGGNTNYADSVKGRFTISRDNANNTVYLQMNSLNPDDTAVYYCAAGHGSLRYNYWGQGSQVTVSS”, for which the “polyreactivity (PSR sort gate)” value is “high polyreactivity”. As to “QVKLVESGGGLVQSGGSLRLSCAASGSILDVNAMGWYRQAPGKERELVAAISDSGGSTYYADSVKGRFTISRDNAKNTVYLQMNSLKPEDTAVYYCATAYYYHGGYYYPYDDYWGQGTQVTVSS”, the “polyreactivity (PSR sort gate)” value is reported as “low polyreactivity”. “QVQLVESGVGLVQAGGSLRLSCAASGRIFSKYAMGWYRQAPGKERELVAAISANGGGSTYYADSVKGRFTISRDNAKNTFYLQMNSLKPEDSAVYYCAALAYSTTRGRLDYWGQGTQVTVSS”: the “polyreactivity (PSR sort gate)” value is given as “high polyreactivity”. With “QVQLVESGGGLVQAGGRLRLSCAASGFTLTRNAMGWYRQAPGKERELVAAISWSGGTTYYADSVKGRFTISRDNAKNTVYLQMNSLKPEDTAVYYCNTASLRAHYYYWGQGTQVTVSS” the entry was “high polyreactivity”. With “QVQLVESGGGLVQAGGSLRLSCAASGFIFARYAMGWYIQAPGKERELVAAITRRGGSTYYADSVKGRFTISRDNAKNTVYLQMNSLKPEDTAVYYCAAVTSTSWGSVSYRYGVGYDYWGQGTQVTVSS” the entry was “high polyreactivity”; with “QVQLVESGGGLVQAGGSLRLSCAASGITFDHSAMGWYRQAPGKEREFVAAIDDIGGDTYYADSVKGRFTISRDNAKNTVYLQMNSLKPEDTAVDYCAADYGYYSRFYYWGQGTQVTVSS”, “low polyreactivity”. With “QVQLVESGGGLVQSGGSLRLSWAASGSIFVTYAMRCYRPAPGKERELVAAINSGGRTNYADSVKGRFTISRDNAMNTVFLNMNSMKPEDTAVYYCAATGRYFDPYYRYDYWGQGTQVTVSS” the entry was “low polyreactivity”.

As to “QVHLVETGGGLVQAGGSLRLSCAASGYIFGWYAMGWYRQAPGKERELVAAITRGGSTNYADSVKGRFTISRDNAKNTVYLLMNSLKPEDTAVYYCNTEDWAVGSPEVEYEYDYWGQGTQVTVSS”, the “polyreactivity (PSR sort gate)” value is on record as “low polyreactivity”. As to “QVLRVESGGGLVQAGGSLRLSCSASGFIFRPNAMGWYRQAPGKERELVARITYRGGSTYYADSVKGRFTISRDNAKKTVYLQMNSLKPEDTEVYYCAARAVTYAGYTYNYWGQGSQVTVSS”, the “polyreactivity (PSR sort gate)” value is “high polyreactivity”. Consider “QVQLVESGGGLVQAGGSLRLSCAASGLIFYSNAMGWYRQAPGKDRELVAAITTSGSSTYYADSVKGRFTISRDNAKNTVYIPMNSLKPEDTAVYYCATEWRSNYWGQGTQVTVSS”, for which the “polyreactivity (PSR sort gate)” value is on record as “low polyreactivity”. Take “QVQLVESGGGLVQAGGSLRLSCAASGFTFPFYTMGWYRQAPGKERELVAAISRSGASTFYADSVKGRFTISRDNAKNTGYLQMNSLKPEDTAVYYCAGRRGYAPYEYWGQGTQVTVSS”: the “polyreactivity (PSR sort gate)” value is “high polyreactivity”.

As for “QVQLVESGAGLVQAGVSLRLSCAASGRIFYYYTMGWYRHAPGKERELVASITIGDSTYYADSVKGRFTISRDNAKNTVYLQMNSLKPEDTAVYYCAAVKTVDVGYDYWGQGTQVTVSS”, the “polyreactivity (PSR sort gate)” value is on record as “low polyreactivity”. With “PVQLVESGGGLVQAGGRLRLSCASSGLTFYYYAMGWYLQSPGKESELVAALSRSGGSTYYADSVKGRFTISRDNAQNTVYLQMISLKPEDTAVYYCAAREPYEVLLYYYEDYYWGQGTQVTVSS” the entry was “high polyreactivity”; with “QVQLVESGGGLVQAGGSLRLSCAASGSTFTSNTMGWCRQAPGKERELVAGITGAGSTNYADSVKGRFTISRDNEKNTVYLQMNSLKPEDTAVYYCAASVRWPRVSQRARYGYYYWGQGTQVAVSS”, “high polyreactivity”; with “QVQLVESGGGLVQAGGSLRLSCAASGSTIRWYAMGWDRQAPGKERELVASITWSGGGTYYADSVKGRFTISRDNAKNTVYLQMNSLKPEDTAVYYCNRRTWRYETRGDDYWGQGTQVTVSS”, “high polyreactivity”. Take “QVQLVESGGGLVQAGGSLRLSCAASGFTFSRNTMGSSRQAPGKERELVARIPASGGSTYYADSVKGRFTISRDNAKNTVYLLMNSLNPEDTAVYYCAAVYRRYGASRYDYWGQGTQVTVSS”: the “polyreactivity (PSR sort gate)” value is on record as “high polyreactivity”. With “QVHLVESGGGLVQAGGSIRLSCAASGGTFSRNAMGWYRQAPGKERELVAAINSSGVSTSYADSVKGRFTISRDNAKNNVYLQMNSLKPEDTAVYYCAAETSSAEVDYWGQGTQVTVSS” the entry was “low polyreactivity”; with “QVQLVESGGGLVQAGGSLRLSCAASGFTIYRYAMGWSRQAPGKERELVAAISGGGSRTYYADSVKGRFTISRDNAKNTVYLLMNSLKPEDTAVYYCNADPVKYSYDGYARPRYDYWGQGTQVTVSS”, “low polyreactivity”. With “QVQLVESGVGLVQAGGSLRLSCAASGSIFQGYAMGWYRQAPGKERELVAGITSSGGRTRYADSLKGRFTISRDNAKNTVYLQMNSLKPEDTAVYSCAADYVRHIGYNYWGQGNQVTVSS” the entry was “high polyreactivity”. With “QVQLVESGGGLVQAGGSLRLSCAASGSTLATNAMGWYRQAPGKERELVAYADSVKGRFTISRDNAKNTVYLQMNSLKPEDTAVYYCNVEAPGRAQYGYPQGDYWGQGTQVTVSS” the entry was “low polyreactivity”; with “QVQLVESGGGLVQAGGSHRLSCSASGRIFGLYAMGWYRQAPGKERELVAAITSSTGSTYYADSVKGRFTISRDNAKNTVYLQMNSLKPEDTAVYYCAADLYSPSIYGYIYYTWLDYWGQGTQVTVSS”, “high polyreactivity”; with “QVQLVESGGGLVQAGGSLRLSCAASGSIFGYNAMGWSRQAPGKERELVAGITSGTSTYYADSVKGRFTISRDNAKYTVYLQMNSLKPEDTEVYYCARTSYRFYRKRYYWGQGTQVTVSS”, “high polyreactivity”.
